US20230310631A1, “THERAPEUTIC USE OF GLUCAGON DERIVATIVE OR CONJUGATE THEREOF FOR LIVER DISEASE” (HANMI PHARM. CO., LTD., priority 2020, published 2023)
Bridge positions count the residues as written; N and C are the ends. Square brackets hold non-standard residues; d marks the D form. Ends that are not written are not given here. Aib = CC(C)(N)C(=O)O

Molecular target: human glucagon receptor (human, UniProt P47871 26-477)
Assay: cell-based or functional assay

Chain of human glucagon receptor (P47871 26-477): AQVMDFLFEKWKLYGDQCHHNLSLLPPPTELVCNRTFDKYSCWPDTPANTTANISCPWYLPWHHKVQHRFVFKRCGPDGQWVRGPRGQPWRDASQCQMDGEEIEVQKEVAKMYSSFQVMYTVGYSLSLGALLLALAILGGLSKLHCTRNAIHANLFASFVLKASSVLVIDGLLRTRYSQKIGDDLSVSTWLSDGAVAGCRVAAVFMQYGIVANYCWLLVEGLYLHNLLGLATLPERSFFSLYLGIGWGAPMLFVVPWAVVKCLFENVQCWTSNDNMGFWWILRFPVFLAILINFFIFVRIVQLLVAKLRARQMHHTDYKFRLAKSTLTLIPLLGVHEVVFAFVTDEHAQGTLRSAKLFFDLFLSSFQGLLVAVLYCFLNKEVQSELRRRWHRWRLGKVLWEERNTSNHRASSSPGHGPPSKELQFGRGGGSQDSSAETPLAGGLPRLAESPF

Binder	In vitro Activity (relative activity to SEQ ID NO: 1, %); cAMP assay, from EC50 [%]
Y[Aib]QGTFTSDYSKYLDSCDAQDFVVWLINT [glucagon derivative of SEQ ID NO: 9]	< 0.1
Y[Aib]QGTFTSDYSKYLDSCDADDFVVWLINT [glucagon derivative of SEQ ID NO: 10]	< 0.1
Y[Aib]QGTFTSDYSKYLDEKCAKEFVQWLMNT (not fully specified (bridges)) [glucagon derivative of SEQ ID NO: 11]	4.6
Y[Aib]QGTFTSDYSKYLDEKRAKEFVQWLMNTC (lactam 16-20) [glucagon derivative of SEQ ID NO: 12]	56.3
Y[Aib]QGTFTSDYSCYLDSRRAQDFVQWLMNT [glucagon derivative of SEQ ID NO: 13]	5.2
Y[Aib]QGTFTSDYSKYLDCKRAKEFVQWLMNT (not fully specified (bridges)) [glucagon derivative of SEQ ID NO: 14]	18.1
Y[Aib]QGTFTSDYSKYLCEKRAQDFVVWLMNT [glucagon derivative of SEQ ID NO: 15]	1.1
Y[Aib]QGTFTSDYSKYLDCRRAQVFVQWLMRT [glucagon derivative of SEQ ID NO: 16]	4.2
Y[Aib]QGTFTSDYSKYLDCVRAQDFVQWLMRT [glucagon derivative of SEQ ID NO: 17]	23.2
Y[Aib]QGTFTSDYSKYLDSRRACDFRLWLMNT [glucagon derivative of SEQ ID NO: 18]	< 0.1
Y[Aib]QGTFTSDYSKYLCEKRAKEFVQWLMNT (lactam 16-20) [glucagon derivative of SEQ ID NO: 19]	12.1
Y[Aib]QGTFTSDYSKYLDECRAKEFVQWLMNT (lactam 16-20) [glucagon derivative of SEQ ID NO: 20]	300
Y[Aib]QGTFTSDYSKYLDEKCAKEFVQWLMNT (lactam 16-20) [glucagon derivative of SEQ ID NO: 21]	57.8
Y[Aib]QGTFTSDYSKYLDEKRCKEFVQWLMNT (lactam 16-20) [glucagon derivative of SEQ ID NO: 22]	148
Y[Aib]QGTFTSDYSKYCDEKRAKEFVQWLMNT (lactam 16-20) [glucagon derivative of SEQ ID NO: 23]	76.8
Y[Aib]QGTFTSDYSKCLDEKRAKEFVQWLMNT (lactam 16-20) [glucagon derivative of SEQ ID NO: 24]	58
Y[Aib]QGTFTSDYSKYLDEKRAKCFVQWLMNT (lactam 16-20) [glucagon derivative of SEQ ID NO: 25]	46.9
W[Aib]QGTFTSDYSKYLDECRAKDFVQWLMNT (lactam 16-20) [glucagon derivative of SEQ ID NO: 26]	1
Y[Aib]QGTFVSDYSKYLDECRAKDFVQWLMNT (lactam 16-20) [glucagon derivative of SEQ ID NO: 27]	93.6
W[Aib]QGTFVSDYSKYLDECRAKDFVQWLMNT (lactam 16-20) [glucagon derivative of SEQ ID NO: 28]	< 0.1
HSQGTFTSDYSKYLDCDRAQDFVQWLMNT [glucagon derivative of SEQ ID NO: 2]	0.6
Y[Aib]QGTFTSDYSKCLDERRAKDFVQWLMNT (lactam 16-20) [glucagon derivative of SEQ ID NO: 29]	61.3

Binder	In vitro Activity (relative activity to SEQ ID NO: 1, %); cAMP assay, from EC50 [%]
W[Aib]QGTFTSDYSKCLDERRAKDFVQWLMNT (lactam 16-20) [glucagon derivative of SEQ ID NO: 30]	0.3
Y[Aib]QGTFTSDYSKYLDCKRAKEFVQWLMNT (lactam 17-21) [glucagon derivative of SEQ ID NO: 31]	6.3
SQGTFTSDYSKYLDECRAKEFVQWLMNT (lactam 15-19) [glucagon derivative of SEQ ID NO: 32]	0.7
YXQGTFTSDYSKYLDSRRAQDFVQWLMNT (X at position 2 = aminoisobutyric acid (Aib)) [glucagon derivative of SEQ ID NO: 33]	108
W[Aib]QGTFTSDYSKYCDERRAKEFVQWLMNT (lactam 16-20) [glucagon derivative of SEQ ID NO: 34]	0.2
Y[Aib]QGTFTSDYSKYCDERRAKEFVQWLMNT (lactam 16-20) [glucagon derivative of SEQ ID NO: 35]	17.7
Y[Aib]QGTFTSDCSKYLDERRAKEFVQWLMNT (lactam 16-20) [glucagon derivative of SEQ ID NO: 36]	9.9
Y[Aib]QGTFTSDYSKYLDERRAKEFVQWLMNTC (lactam 16-20) [glucagon derivative of SEQ ID NO: 37]	226
Y[Aib]QGTFCSDYSKYLDERRAKEFVQWLMNT (lactam 16-20) [glucagon derivative of SEQ ID NO: 38]	167
HSQGTFTSDYSKYLDCERAQDFVQWLMNT [glucagon derivative of SEQ ID NO: 3]	6.1
Y[Aib]QGTFVSDCSKYLDERRAKDFVQWLMNT (lactam 16-20) [glucagon derivative of SEQ ID NO: 39]	3.7
Y[Aib]QGTFVSDYSKYLDERRAKDFVQWLMNTC (lactam 16-20) [glucagon derivative of SEQ ID NO: 40]	40.8
Y[Aib]QGTFCSDYSKYLDERRAKDFVQWLMNT (lactam 16-20) [glucagon derivative of SEQ ID NO: 41]	45.2
Y[Aib]QGTFCSDYSKYLDSRRAQDFVQWLMNT [glucagon derivative of SEQ ID NO: 42]	37.9
Y[Aib]QGTFTSDCSKYLDSRRAQDFVQWLMNT [glucagon derivative of SEQ ID NO: 43]	1.6
YXQGTFTSDYSKYLDSRRAQDFVQWLMNTC (X at position 2 = aminoisobutyric acid (Aib)) [glucagon derivative of SEQ ID NO: 44]	75.4
Y[Aib]QGTFTSDYSCYLDEKRAKEFVQWLMNT [glucagon derivative of SEQ ID NO: 45]	5.2
HSQGTFTSDYSKYLDSCDAQDFVQWLMNT [glucagon derivative of SEQ ID NO: 4]	< 0.1
HSQGTFTSDYSKYLDSCEAQDFVQWLMNT [glucagon derivative of SEQ ID NO: 5]	0.3
HSQGTFTSDYSKYLDSCEADDFVQWLMNT [glucagon derivative of SEQ ID NO: 6]	< 0.1
YSQGTFTSDYSKYLDSCEADDFVQWLMNT [glucagon derivative of SEQ ID NO: 7]	< 0.1
Y[Aib]QGTFTSDYSKYLDSCDAQDFVQWLINT [glucagon derivative of SEQ ID NO: 8]	< 0.1
